Results reported in patent US20240368668A1, “SUBSTRATES AND BIOMARKERS OF ADAMTS7” (The Broad Institute, Inc., priority 2021, published 2024).
Square brackets hold non-standard residues; d marks the D form. Ends that are not written are not given here.

Biological target: T1, mouse ADAMTS7 (Mus musculus, UniProt Q68SA9, E373Q)
T1 construct: Full-length mouse Adamts7 1-1857 (Uniprot Q68SA9, WT or E373Q catalytic mutant); expressed in transfected cells; host or cells: Human Coronary Artery Smooth Muscle Cells (HCA-SMC, Lonza), adenovirus 50 MOI
T1 sequence (Q68SA9 221-1657 E373Q): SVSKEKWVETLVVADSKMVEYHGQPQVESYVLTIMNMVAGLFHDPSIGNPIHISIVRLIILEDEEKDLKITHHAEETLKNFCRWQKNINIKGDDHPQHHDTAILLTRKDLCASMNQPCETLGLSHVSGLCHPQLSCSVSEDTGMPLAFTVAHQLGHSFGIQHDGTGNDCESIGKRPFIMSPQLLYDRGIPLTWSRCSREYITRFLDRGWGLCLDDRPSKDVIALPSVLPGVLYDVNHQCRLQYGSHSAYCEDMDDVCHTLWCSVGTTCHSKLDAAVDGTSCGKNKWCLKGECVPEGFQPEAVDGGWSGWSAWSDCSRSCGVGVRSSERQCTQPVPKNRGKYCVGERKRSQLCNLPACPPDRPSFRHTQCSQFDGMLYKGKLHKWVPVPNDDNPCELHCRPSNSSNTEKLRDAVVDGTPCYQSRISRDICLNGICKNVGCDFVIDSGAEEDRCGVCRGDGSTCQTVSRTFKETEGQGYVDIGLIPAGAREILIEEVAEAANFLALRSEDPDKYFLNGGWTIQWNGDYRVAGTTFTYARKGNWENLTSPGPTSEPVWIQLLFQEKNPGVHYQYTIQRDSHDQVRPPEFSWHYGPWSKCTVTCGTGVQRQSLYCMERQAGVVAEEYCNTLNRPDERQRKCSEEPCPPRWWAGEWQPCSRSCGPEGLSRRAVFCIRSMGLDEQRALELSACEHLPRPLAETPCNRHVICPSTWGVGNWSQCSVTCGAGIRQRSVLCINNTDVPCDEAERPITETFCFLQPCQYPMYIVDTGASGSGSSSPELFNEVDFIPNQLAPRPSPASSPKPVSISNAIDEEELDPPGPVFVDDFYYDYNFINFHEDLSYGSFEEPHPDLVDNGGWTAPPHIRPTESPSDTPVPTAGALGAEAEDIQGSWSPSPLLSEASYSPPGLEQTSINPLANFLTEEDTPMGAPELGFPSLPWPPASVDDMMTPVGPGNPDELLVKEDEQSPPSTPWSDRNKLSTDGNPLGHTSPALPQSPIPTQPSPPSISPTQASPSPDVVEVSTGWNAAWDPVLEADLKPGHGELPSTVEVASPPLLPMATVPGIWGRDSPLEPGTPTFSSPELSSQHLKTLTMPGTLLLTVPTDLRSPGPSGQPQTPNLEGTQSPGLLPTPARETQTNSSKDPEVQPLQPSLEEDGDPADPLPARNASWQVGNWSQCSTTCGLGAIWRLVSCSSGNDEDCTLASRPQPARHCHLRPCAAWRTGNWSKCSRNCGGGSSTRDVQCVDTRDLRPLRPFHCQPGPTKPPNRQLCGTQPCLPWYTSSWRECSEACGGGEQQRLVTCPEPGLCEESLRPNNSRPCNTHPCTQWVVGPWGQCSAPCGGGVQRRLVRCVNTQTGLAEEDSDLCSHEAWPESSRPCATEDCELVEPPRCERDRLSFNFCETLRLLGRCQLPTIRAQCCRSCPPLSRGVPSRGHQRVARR
Test: TMT10 TAILS N-terminomics, HUVEC experiment (process replicates, trypsin/AspN digest)
Type: cell-based, human
Settings: HUVEC TAILS HC; log fold change of N-terminal peptide, Ad-mADAMTS7 EQ over Luc
Outline: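 Full-length mouse ADAMTS7 (WT or E373Q mutant, C-terminal 3xFLAG) or luciferase was transduced via adenovirus, 50 MOI, into HCA-SMC (SMC1, SMC2) or HUVEC. SMC1: pooled media, technical triplicates 400 ug; SMC2: process triplicates 300 ug; HUVEC: process triplicates 200 ug, bFGF2 10 ng/ml.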

| Substance | logFC.mEQ.over.Luc |
| --- | --- |
| ERAP2_718 (ISENLKR; listed as Homo sapiens) | 0.64 |
| ECM1_108 (QEAVPLQK; listed as Homo sapiens) | 0.09 |
| FN1_2113 (FVTHPGY; listed as Homo sapiens) | −0.62 |
| FN1_35 ([code q]MVQPQSPVAVSQSKPGCY; not fully specified (residue 2); listed as Homo sapiens) | −0.27 |
| LOX_125 (FQAGYSTSR; listed as Homo sapiens) | 0.24 |
| FN1_607 (SSSGPVEVFIT; listed as Homo sapiens) | −0.40 |
| EFEMP1_125_ (VAGPEMQTGR; listed as Homo sapiens) | −0.11 |
| FN1_1805 (LIGTQSTAIPAPT; listed as Homo sapiens) | 0.05 |
| FN1_1144 (TPGVEYVYTIQVLR; listed as Homo sapiens) | −0.19 |
| FSTL1_290 (LQKHQETA; listed as Homo sapiens) | −0.24 |

Further lines, results first:

| logFC.mEQ.over.Luc | Substance |
| --- | --- |
| −0.47 | FN1_1780 (LQGLRPGSEYTVSVVALH; listed as Homo sapiens) |
| −0.06 | FN1_34 ([code q]QMVQPQSPVAVSQSKPGCY; not fully specified (residue 3); listed as Homo sapiens) |
| −0.29 | FN1_293 (VYQPQPHPQPPPYGHCVT; listed as Homo sapiens) |
| −0.05 | EWSR1_87 (YSQPVQGYGTGAY; listed as Homo sapiens) |
